Positions count from the first letter of the chain named. Names and notes keep the numbering of the source.
T1: recombinant human RANKL (soluble, Gly136-Asp317, N-terminal 10 His, expressed in CHO cells) (human, UniProt O14788 136-317)
T1 construct: residues between secretion signal and His tag are not described; also called hRANKL; hRNAKL
T1 sequence: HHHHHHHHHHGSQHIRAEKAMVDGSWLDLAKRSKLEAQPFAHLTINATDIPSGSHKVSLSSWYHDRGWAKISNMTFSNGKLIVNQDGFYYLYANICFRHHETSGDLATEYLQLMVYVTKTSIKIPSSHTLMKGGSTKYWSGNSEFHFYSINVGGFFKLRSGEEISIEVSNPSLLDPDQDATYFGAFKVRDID

T2: mouse RANKL (R & D Systems) (mouse, UniProt O35235 158-316, limits assumed)
T2 construct: also called murine RANKL
T2 sequence (looked up): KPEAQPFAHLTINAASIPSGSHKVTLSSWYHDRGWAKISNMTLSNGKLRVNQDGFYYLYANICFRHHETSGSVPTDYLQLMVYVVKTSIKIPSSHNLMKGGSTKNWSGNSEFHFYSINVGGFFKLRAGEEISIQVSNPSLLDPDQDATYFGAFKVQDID

T3: monkey RANKL (cynomolgus monkey, R & D Systems) (cynomolgus monkey, UniProt A0A7N9DBU4 140-317)
T3 construct: also called cynomolgus monkey RANKL
T3 sequence: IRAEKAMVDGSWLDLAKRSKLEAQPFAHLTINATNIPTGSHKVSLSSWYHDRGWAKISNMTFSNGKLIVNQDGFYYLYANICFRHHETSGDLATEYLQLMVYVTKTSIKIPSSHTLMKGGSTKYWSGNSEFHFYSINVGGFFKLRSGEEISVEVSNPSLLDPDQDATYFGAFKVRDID

B1: G2 (antibody, human IgG2, kappa, V domains shown)
VH: QVQLVQSGAELKKPGASVKLSCKASGYTFTTYWLQWVRQAPGQGLEWMGAIYPGPGNTKYTQKFKDRFTITADKSKSTAYMQLNSLKSEDSAVYYCARRGSRRGIAYWGQGTLVTVSA
VL: NIVLTQSPASLSVSLGQRATISCRASESVDSYGRSFMHWYQQRPGQAPRLLIYLASNLESGVPARFSGSGSRTDFTLTISSVEAEDEATYYCQQDNEDPYTFGGGTKLEIKG
notes: 293F cells
B2: G3 (antibody, human IgG2, kappa, V domains shown)
VH: B1 VH
VL: B1 VL with R43K, R49K, A64S, S81A, E87A
notes: 293F cells
B3: G4 (antibody, human IgG2, kappa, V domains shown)
VH: B1 VH
VL: B1 VL with R49K
notes: 293F cells
B4: G5 (antibody, human IgG2, kappa, V domains shown)
VH: B1 VH
VL: B1 VL with R43K, R49K, A64S, S81R, E87A
notes: 293F cells
B5: G6 (antibody, human IgG2, kappa, V domains shown)
VH: B1 VH with K12V, K13Q, A40T, F68V, K74T, K76T, K87R
VL: B1 VL
notes: 293F cells
B6: G7 (antibody, human IgG2, kappa, V domains shown)
VH: B1 VH with K12V, K13Q, A40T, F68V, K74T, K76T, K87R
VL: B1 VL with R43K, R49K, A64S, S81A, E87A
notes: 293F cells
B7: G1 (antibody, human IgG2, kappa, V domains shown)
VH: QVQLQQSGAELASPGASVKLSCKASGYTFTTYWLQWVKQRPGQGLEWIGAIYPGPGNTKYTQKFKDKATLTADKSASTAYMQLNSLTSEDSAVYYCARRGSRRGIAYWGQGTLVTVSA
VL: B1 VL with S12A, A47P, R49T, A64V, S80D, S81P, E85D, E87A
notes: expressed in 293F cells; also called murine antibody G1; mouse antibody (G1)
B8: G12 (antibody, human IgG2, kappa, V domains shown)
VH: B1 VH with K74T
VL: B1 VL with R49K
notes: 293F cells
B9: G9 (antibody, human IgG2, kappa, V domains shown)
VH: B1 VH with K12V, K13Q, A40T, F68V, K74T, K76T, K87R
VL: B1 VL with R43K, R49K, A64S, S81R, E87A
notes: 293F cells
B10: G11 (antibody, human IgG2, kappa, V domains shown)
VH: B1 VH with K74T
VL: B1 VL with R43K, R49K, A64S, S81A, E87A
notes: 293F cells
B11: G13 (antibody, human IgG2, kappa, V domains shown)
VH: B1 VH with K74T
VL: B1 VL with R43K, R49K, A64S, S81R, E87A
notes: 293F cells
B12: 114-2.222 (antibody, V domains shown)
VH: EVQLQQSGAELVKPGASVKLSCTTSGFNIKATYIHWVQQRPEQGLEWIGRIDPANGNTKYDSKFQGKATITADTSSNTAYLQLSSLTSEDTAVYFCARSLHYYVFFDYWGQGTTLTVSS
VL: DIQMTQTTSSLSASLGDRVTISCSASQGISNYLNWYQQKPDGTVKLLIYSTSSLHSGVPSRFSGSGSGTDYSLTISSLEPEDIATYYCQQYSKLPLTFGAGTKLELKR
notes: Murine monoclonal antibody from hybridoma
B13: 114-7.19.12 (antibody, V domains shown)
VH: B7 VH
VL: NIVLTQSPASLAVSLGQRATISCRASESVDSYGRSFMHWYQQRPGQPPTLLIYLASNLESGVPVRFSGSGSRTDFTLTIDPVEADDAATYYCQQDNEDPYTFGGGTKLEIK
notes: Murine monoclonal antibody purified from hybridoma supernatant
B14: 114-7.37.26 (antibody, V domains shown)
VH: B7 VH with A24T, N84S
VL: B13 VL with V64A
notes: as for B12
B15: 114-7.38.48 (antibody, V domains shown)
VH: DVQLQESGPDLVKPSQSLSLTCTVTGYSITSAYSWHWIRQFPGNKLEWMGYIHFSGVTNYNPSLKSRISITRDASKNQFFLQLSSVTTEDTATYYCATRRETGFTYWGQGTLVTVSA
VL: DIVLTQSPATLSVTPGDSVSLSCRASQSISKNLHWYQQKSHESPRLLIKYASQSISGIPSRFSGSGSGTDFTLSINSVETEDFGIYFCQQINSWPLTFGAGTKLELK
notes: as for B12
B16: 114-6.6.29 (antibody, V domains shown)
VH: DVKLVESGGGLVKPGGSLKLSCAASGFTFSSYTMSWVRQTPEKRLEWVATISSGGSYTYYPDSVKGRFTISRDNAKNTLYLQMSSLKSEDTAMYYCTRDWDYYGTTYVGGYAMDYWGQGTSVTVSS
VL: DVLMTQTPLSLPVSLGDQASISCRSSQSIVHSNGNTYLEWYLQKPGQSPKLLIYKVSNRFSGVPDRFSGSGSGTDFTLKISRVEAEDLGVYYCFQGSHVPWTFGGGTKLEIK
notes: as for B12
B17: 114-5.7.14 (antibody, V domains shown)
VH: EVQLQQSGAELVKPGASVKLSCTASGFKIKDTYMHWVRQRPEQGLEWIGRIDSANGNIKYDPKFQGKATITADTSSKTAYLHLSSLTFEDTAVYYCSRPKSNYDFWLPYWGQGTLVTVSA
VL: DIQMTQTTSSLSASLGDRVTISCSASQGISNYLNWYQQKPDGTVKLLIYYTSSLHSGVPSRFSGSGSGTDYSLTISNLEPEDIATYYCQQYSKLPLTFGAGTKLELK
notes: as for B12
B18: 114-5.9.4 (antibody, V domains shown)
VH: EVQLQQSGAELVKPGASVKLSCTASGFNLKGTYIHWVKQRPGQGLEWIGRIDPANANTKYDPKFQGKATIRTDTSSNTAYLQLSSLTSEDTAVYFCSSPSGHYDVWFAYWGQGTLVTVSP
VL: B12 VL with T7P, R18T, G28D, V44L, S50Y, S77N, Y91F
notes: as for B12
B19: 114-2.402 (antibody, V domains shown)
VH: EVQLQQSGTELVKPGASVKLSCTLFGFNIKATYMHWVRQRPEQGLEWIGRIDPPNGNTKYDPKFQDKATIKVDTSSNTAYLQLSSLTSEDTAVYYCAREFNRYDVWLAYWGQGTLVTVSA
VL: B12 VL with I29V, S77N, I83V, L96F, A100S, L106I
notes: as for B12

The binders below were run against T1, recombinant human RANKL (soluble, …) (assay: competitive ELISA, RANK-Fc coated, antibody pre-incubated with 0.25 µg/ml hRANKL; Plate#01).

| Binder | IC50 |
| --- | --- |
| B1 | 0.3 µg/mL |
| B2 | 0.31 µg/mL |
| B3 | ~0.36 µg/mL |
| B4 | 0.29 µg/mL |
| B5 | 0.29 µg/mL |
| B6 | 0.29 µg/mL |
| B7 | 0.18 µg/mL |

What follows are binders tested against T1, recombinant human RANKL (soluble, …) (assay: competitive ELISA, RANK-Fc coated, antibody pre-incubated with 0.25 µg/ml hRANKL; Plate#02).

| Binder | IC50 |
| --- | --- |
| B8 | 0.36 µg/mL |
| B9 | 0.5 µg/mL |
| B10 | 0.19 µg/mL |
| B11 | 0.31 µg/mL |
| B7 | ~0.35 µg/mL |

What follows are binders tested against T1, recombinant human RANKL (soluble, …) (assay: ELISA, hRANKL coated 1 µg/ml; concentration at 50% Bmax; Plate#02).

| Binder | EC50 |
| --- | --- |
| B8 | 0.00175 µg/mL |
| B9 | 0.00328 µg/mL |
| B10 | 0.0019 µg/mL |
| B11 | 0.00234 µg/mL |
| B7 | 0.00188 µg/mL |

Each binder was assayed against T2, mouse RANKL (R & D Systems) (assay: direct ELISA, mouse RANKL coated 1 µg/ml).

| Binder | binding result |
| --- | --- |
| B12 | no binding |
| B13 | no binding |
| B14 | no binding |
| B15 | no binding |
| B16 | no binding |
| B17 | no binding |
| B18 | no binding |
| B19 | no binding |

The binders below were run against T1, recombinant human RANKL (soluble, …) (assay: cell-based or functional assay).

| Binder | IC50 (ng/ml) in RAW264.7 cells |
| --- | --- |
| B8 | ~1060 ng/mL |
| B3 | ~1080 ng/mL |

These binders were tested against T1, recombinant human RANKL (soluble, …) (assay: direct ELISA, human RANKL coated 1 µg/ml).

| Binder | EC50 |
| --- | --- |
| B12 | 0.0137 µg/mL |
| B13 | 0.00993 µg/mL |
| B14 | 0.0159 µg/mL |
| B15 | 0.0185 µg/mL |
| B16 | 0.0117 µg/mL |
| B17 | 0.00623 µg/mL |
| B18 | 0.0118 µg/mL |
| B19 | 0.0112 µg/mL |

These binders were tested against T3, monkey RANKL (cynomolgus monkey, R & D …) (assay: direct ELISA, monkey RANKL coated).

| Binder | EC50 |
| --- | --- |
| B12 | 0.0153 µg/mL |
| B13 | 0.0129 µg/mL |
| B14 | 0.016 µg/mL |
| B15 | 0.0198 µg/mL |
| B16 | 0.0104 µg/mL |
| B17 | 0.00686 µg/mL |
| B18 | 0.00967 µg/mL |
| B19 | 0.0111 µg/mL |

The binders below were run against T1, recombinant human RANKL (soluble, …) (assay: competitive ELISA, RANK-Fc coated, antibody mixed with human RANKL (0.6 µg/ml, equal volume)).

| Binder | EC50 |
| --- | --- |
| B12 | 0.8 µg/mL |
| B13 | 0.28 µg/mL |
| B14 | 0.29 µg/mL |
| B15 | 0.93 µg/mL |
| B16 | 0.39 µg/mL |
| B17 | 0.33 µg/mL |
| B18 | 0.28 µg/mL |
| B19 | 0.93 µg/mL |

Molecular target: T1, recombinant human RANKL (soluble, …)
Experiment: cell-based or functional assay
Remark: another data set of the same source

| Binder | EC50 value (ng/ml), inhibition of RAW264.7 differentiation |
| --- | --- |
| B12 | 311 ng/mL |
| B13 | 267 ng/mL |
| B14 | 470 ng/mL |
| B15 | 585 ng/mL |
| B16 | 799 ng/mL |
| B17 | 315 ng/mL |
| B18 | 340 ng/mL |
| B19 | 396 ng/mL |

What follows are binders tested against T1, recombinant human RANKL (soluble, …) (assay: ELISA, hRANKL coated 1 µg/ml; concentration at 50% Bmax; Plate#01).

| Binder | EC50 |
| --- | --- |
| B1 | 0.00255 µg/mL |
| B2 | 0.00187 µg/mL |
| B3 | 0.00195 µg/mL |
| B4 | 0.00221 µg/mL |
| B5 | 0.00147 µg/mL |
| B6 | 0.00182 µg/mL |
| B7 | 0.00147 µg/mL |

Reference: EP3085709A1 (Genor Biopharma Co., Ltd, dated 2016)
